Some results are limits rather than exact numbers.

Assay [1] deals with GDF15-HIS (ACROBiosystems, CAT #: GD5-H5149) (human) (UniProt Q99988).
Assay [2] shares this target. Put plainly: cell-based or functional assay.
Assay [3] has the same target. Put plainly: ELISA, GDF15-HIS coated.
Assay [4] shares this target. Nature of the assay: BLI (ForteBio Octet), antibody immobilised, GDF15 200-6.25 nM.
Assay [5] concerns the target GDF15-mFC protein (human; mouse) (UniProt Q99988). Put plainly: blocking ELISA as in Example 4, GFRAL-hIgG1 Fc coated (competitor), GDF15-mFC mixed with antibody.
Assay [6] has the same target. Put plainly: competitive ELISA, GFRAL-HIS coated (competitor), GDF15-mFc 0.3 µg/ml pre-incubated with antibody.

GDF15-HIS (ACROBiosystems, CAT #: GD5-H5149) (human), sequence (Q99988 197-308 limits assumed): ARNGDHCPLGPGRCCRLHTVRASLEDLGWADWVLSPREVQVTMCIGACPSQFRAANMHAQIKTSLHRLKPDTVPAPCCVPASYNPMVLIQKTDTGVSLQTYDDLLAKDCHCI
GDF15-mFC protein (human; mouse), sequence (Q99988 197-308): as the sequence (Q99988 197-308 limits assumed) above

B1: Ponsegromab (antibody, INN chains, looked up, V domains shown)
VH: QVQLVQSGAEVKKPGSSVKVSCKASGYTFSSYNIDWVRQAPGQGLEWMGGINPIFGTAFYNQKFQGRVTITADESTSTAYMELSSLRSEDTAVYYCAREAITTVGAMDHWGQGTLVTVSS
VL: EIVLTQSPATLSLSPGERATLSCRTSQSVHNYLAWYQQKPGQAPRLLIYDASTRADGIPARFSGSGSGTDFTLTISSLEPEDFAVYYCQQFWSWPWTFGQGTKVEIK
Turning to B1, in assay [1], the EC50 (read off the curve) of GDF15-His for luciferase induction with 0.1 µg/ml antibody present turned out to be 0.01 µg/mL. In assay [2], this molecule gave a Bottom (luciferase activity fold, fitted curve), HEK293 SRE-LUC2-cRET-GFRAL reporter cells of 1.07 and an IC50, luciferase in HEK293 SRE-LUC2-cRET-GFRAL reporter cells stimulated with GDF15-His 5 ng/ml of 0.0321 µg/mL. Further, in assay [3], the EC50 worked out at 0.096 µg/mL and the OD450.Max was 1.1 OD450. In assay [4], this molecule returned a Kd of less than 1 pM, a koff of less than 1e-07 s⁻¹ and a kon of 711000 M⁻¹ s⁻¹. Moreover, in assay [5], the IC50 stood at 0.504 µg/mL and the OD450.Max was determined as 1.02 OD450. Moreover, in assay [6], the IC50 was 0.504 µg/mL and the OD450.Max was 1.02 OD450.

The record behind these values is patent US20250092124A1.
